In paper PMC10641069, “Intra- and inter-molecular regulation by intrinsically-disordered regions governs PUF protein RNA binding” (Nature Communications, 2023):
Where “and” joins values, the source holds several entries; their conditions need not be identical. Equal values may be shown once.

T1: FBF-2 RBD + CT (FBF-2 residues 164-632) (C. elegans, UniProt Q09312 164-632)
T1 sequence (looked up): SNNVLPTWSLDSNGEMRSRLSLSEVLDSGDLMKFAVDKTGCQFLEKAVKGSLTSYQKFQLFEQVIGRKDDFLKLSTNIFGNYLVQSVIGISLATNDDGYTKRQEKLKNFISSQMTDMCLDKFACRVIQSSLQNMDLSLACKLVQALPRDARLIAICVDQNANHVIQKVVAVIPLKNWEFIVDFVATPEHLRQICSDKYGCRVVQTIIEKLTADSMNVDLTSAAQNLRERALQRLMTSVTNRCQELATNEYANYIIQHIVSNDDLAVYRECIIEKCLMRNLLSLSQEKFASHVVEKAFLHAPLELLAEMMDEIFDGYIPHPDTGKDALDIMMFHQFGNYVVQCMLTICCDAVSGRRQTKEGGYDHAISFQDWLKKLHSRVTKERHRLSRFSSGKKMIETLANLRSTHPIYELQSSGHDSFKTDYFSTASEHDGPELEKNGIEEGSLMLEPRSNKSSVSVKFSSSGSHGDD

T2: FBF-2 RBD (FBF-2 residues 164-575) (C. elegans, UniProt Q09312 164-575)
T2 chain: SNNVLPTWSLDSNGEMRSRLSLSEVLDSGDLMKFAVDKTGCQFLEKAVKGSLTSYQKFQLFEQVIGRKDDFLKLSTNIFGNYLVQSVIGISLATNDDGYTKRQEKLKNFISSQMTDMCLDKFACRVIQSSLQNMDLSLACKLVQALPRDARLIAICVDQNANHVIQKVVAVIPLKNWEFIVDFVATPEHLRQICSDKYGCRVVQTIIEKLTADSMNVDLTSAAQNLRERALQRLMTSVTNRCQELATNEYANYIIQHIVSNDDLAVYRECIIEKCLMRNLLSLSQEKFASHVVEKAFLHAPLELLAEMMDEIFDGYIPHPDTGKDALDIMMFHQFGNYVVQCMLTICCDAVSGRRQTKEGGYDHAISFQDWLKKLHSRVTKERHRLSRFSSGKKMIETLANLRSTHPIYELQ

T3: FBF-2 RBD + CT L610A (C. elegans, UniProt Q09312 164-632, L610A)
T3 sequence: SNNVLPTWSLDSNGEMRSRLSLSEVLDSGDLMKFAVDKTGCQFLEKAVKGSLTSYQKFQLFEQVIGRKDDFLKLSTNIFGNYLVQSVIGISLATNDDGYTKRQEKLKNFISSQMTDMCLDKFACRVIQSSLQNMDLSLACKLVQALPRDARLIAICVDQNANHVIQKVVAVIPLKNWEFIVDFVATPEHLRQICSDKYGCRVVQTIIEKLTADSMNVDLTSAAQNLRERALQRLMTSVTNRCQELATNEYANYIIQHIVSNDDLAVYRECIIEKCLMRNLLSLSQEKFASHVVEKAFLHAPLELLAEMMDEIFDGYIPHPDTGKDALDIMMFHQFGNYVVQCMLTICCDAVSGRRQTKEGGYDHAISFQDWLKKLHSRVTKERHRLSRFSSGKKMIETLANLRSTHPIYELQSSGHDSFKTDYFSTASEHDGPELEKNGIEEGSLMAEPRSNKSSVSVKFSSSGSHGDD

T4: FBF-2 RBD + CT L610A (C. elegans, UniProt Q09312 164-632, L610A)
T4 construct: source: E. coli, expressed and purified like wild type proteins; not shown: His6-SUMO, N-terminal, cleaved
T4 sequence (looked up): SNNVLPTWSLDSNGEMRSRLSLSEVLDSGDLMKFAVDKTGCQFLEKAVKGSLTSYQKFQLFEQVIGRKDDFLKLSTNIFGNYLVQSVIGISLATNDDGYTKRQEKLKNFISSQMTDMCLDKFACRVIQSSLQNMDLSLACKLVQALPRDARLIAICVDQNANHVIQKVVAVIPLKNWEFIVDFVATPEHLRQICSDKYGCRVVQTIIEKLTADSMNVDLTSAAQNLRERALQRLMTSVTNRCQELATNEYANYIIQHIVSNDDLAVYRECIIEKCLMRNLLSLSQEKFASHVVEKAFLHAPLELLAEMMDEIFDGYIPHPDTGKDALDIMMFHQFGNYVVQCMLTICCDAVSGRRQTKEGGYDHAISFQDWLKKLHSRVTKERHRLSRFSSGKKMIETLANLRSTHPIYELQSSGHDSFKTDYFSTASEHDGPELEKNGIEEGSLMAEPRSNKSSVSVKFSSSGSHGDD

T5: FBF-2 RBD (FBF-2 residues 164-575) (C. elegans, UniProt Q09312 164-575)
T5 construct: The tag was cleaved with TEV protease; also called FBF-2^164–575; RBD alone; source: E. coli, purified (Ni-NTA, heparin, Superdex 75); not shown: His6-SUMO, N-terminal, cleaved
T5 sequence (looked up): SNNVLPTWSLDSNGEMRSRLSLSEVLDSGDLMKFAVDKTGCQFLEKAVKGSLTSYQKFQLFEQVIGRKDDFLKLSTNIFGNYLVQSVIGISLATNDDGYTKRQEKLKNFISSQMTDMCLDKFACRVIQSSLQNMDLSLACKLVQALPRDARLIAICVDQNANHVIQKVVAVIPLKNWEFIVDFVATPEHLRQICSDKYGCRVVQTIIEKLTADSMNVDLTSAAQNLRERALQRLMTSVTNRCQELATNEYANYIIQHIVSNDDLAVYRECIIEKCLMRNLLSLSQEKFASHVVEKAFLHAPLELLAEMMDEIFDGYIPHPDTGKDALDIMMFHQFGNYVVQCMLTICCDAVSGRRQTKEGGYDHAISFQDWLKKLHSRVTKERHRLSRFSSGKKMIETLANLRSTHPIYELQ


Legend:
[1] = molecular target: T1, FBF-2 RBD + CT (FBF-2 residues 164-632); assay: cell-based or functional assay
[2] = molecular target: T2, FBF-2 RBD (FBF-2 residues 164-575); assay: ITC
[3] = molecular target: T3, FBF-2 RBD + CT L610A; assay: ITC
[4] = molecular target: T2, FBF-2 RBD (FBF-2 residues 164-575); assay: ITC
[5] = molecular target: T4, FBF-2 RBD + CT L610A; assay: ITC; peptide (100–400 µM) titrated from the syringe into the cell containing FBF-2 (10–30 µM); 20 °C; 20 mM HEPES pH 7.4, 150 mM NaCl, 0.5 mM TCEP; no RNA; one-site model; mean of two replicates; conditions: both partners purified
[6] = molecular target: T5, FBF-2 RBD (FBF-2 residues 164-575); assay: as above; conditions: both partners purified

Binder	RNA-binding affinity of FBF-2 RBD + CT for gld-1 FBEa RNA by EMSA in the presence of 150 µM LST-1 A [1] [fold]	Kd [2] [nM]	Kd [3]	Kd [4]	Kd [5] [nM]	Kd [6] [µM]
STIAYSKSQHEAPKQLLQLRSEIKPLIPLNQP (peptide, UniProt P91820 19-50, looked up, The tag was cleaved with Ulp1 protease; also called LST-1^19–50; source: E. coli, purified (Ni-NTA, HiTrap Q flow-through, Superdex 75); not shown: His6-SUMO, N-terminal, cleaved) [LST-1 A peptide (LST-1 residues 19-50)]	3	2100	2100 nM and 2600 nM	2130 nM and 2020 nM	2400	
NGIEEGSLMLEPRSNKSSVSVKFSSSGSHGDD (peptide, UniProt Q09312 601-632, looked up, holds the PIM SLMLEPR (607-613); The tag was cleaved with Ulp1 protease; also called FBF-2^601–632; source: E. coli BL21-CodonPlus (DE3)-RIL, purified (Ni-NTA, HiTrap Q flow-through, Superdex 75); not shown: His6-SUMO, N-terminal, cleaved) [FBF-2 CT peptide (FBF-2 residues 601-632)]						35
